Experimental data published in patent publication US20240368668A1, “SUBSTRATES AND BIOMARKERS OF ADAMTS7” (The Broad Institute, Inc., priority 2021, published 2024).

Molecular target: T1, mouse ADAMTS7 (Mus musculus, UniProt Q68SA9, E373Q)
T1 construct: Full-length mouse Adamts7 1-1857 (Uniprot Q68SA9, WT or E373Q catalytic mutant); expressed in transfected cells; host or cells: Human Coronary Artery Smooth Muscle Cells (HCA-SMC, Lonza), adenovirus 50 MOI
T1 sequence (Q68SA9 221-1657 E373Q): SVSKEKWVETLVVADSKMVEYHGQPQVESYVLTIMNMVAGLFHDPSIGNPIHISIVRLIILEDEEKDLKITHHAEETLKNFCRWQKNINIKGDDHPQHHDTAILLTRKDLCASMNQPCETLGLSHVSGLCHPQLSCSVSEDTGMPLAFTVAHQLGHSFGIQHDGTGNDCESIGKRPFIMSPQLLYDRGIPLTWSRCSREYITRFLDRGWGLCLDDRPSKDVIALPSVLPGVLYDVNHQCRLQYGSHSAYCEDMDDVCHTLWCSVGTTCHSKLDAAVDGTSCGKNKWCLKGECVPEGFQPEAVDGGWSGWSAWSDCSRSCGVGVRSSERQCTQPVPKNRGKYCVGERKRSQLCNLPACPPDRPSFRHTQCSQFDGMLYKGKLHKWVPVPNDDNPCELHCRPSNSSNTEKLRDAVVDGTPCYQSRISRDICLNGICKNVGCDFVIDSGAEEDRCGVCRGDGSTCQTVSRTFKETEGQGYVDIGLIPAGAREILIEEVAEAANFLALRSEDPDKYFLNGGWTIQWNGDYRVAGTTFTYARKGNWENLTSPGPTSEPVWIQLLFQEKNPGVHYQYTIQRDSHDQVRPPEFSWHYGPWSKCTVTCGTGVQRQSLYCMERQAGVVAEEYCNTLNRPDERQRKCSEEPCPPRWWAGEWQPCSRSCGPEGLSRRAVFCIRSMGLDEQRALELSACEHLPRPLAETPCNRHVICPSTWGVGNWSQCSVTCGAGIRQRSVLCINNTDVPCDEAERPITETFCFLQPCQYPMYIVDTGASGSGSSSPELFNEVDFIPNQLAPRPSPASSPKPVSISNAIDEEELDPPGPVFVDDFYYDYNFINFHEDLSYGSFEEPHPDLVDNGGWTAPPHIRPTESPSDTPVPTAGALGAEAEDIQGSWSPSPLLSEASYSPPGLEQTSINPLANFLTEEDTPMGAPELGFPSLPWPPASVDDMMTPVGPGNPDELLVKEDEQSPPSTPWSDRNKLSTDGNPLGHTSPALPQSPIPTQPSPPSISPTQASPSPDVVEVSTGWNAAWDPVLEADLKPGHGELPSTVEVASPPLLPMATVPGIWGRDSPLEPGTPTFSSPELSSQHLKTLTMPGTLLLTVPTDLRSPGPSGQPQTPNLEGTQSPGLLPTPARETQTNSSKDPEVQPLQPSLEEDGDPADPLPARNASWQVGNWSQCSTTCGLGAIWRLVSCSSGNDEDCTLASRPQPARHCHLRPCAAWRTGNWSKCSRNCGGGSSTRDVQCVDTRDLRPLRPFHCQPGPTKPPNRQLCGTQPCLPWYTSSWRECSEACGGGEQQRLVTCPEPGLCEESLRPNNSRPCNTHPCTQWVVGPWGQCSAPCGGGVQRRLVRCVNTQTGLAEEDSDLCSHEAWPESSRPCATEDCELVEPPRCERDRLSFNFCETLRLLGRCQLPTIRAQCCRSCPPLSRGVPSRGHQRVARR
Experiment: TMT10 TAILS N-terminomics, SMC2 experiment (process replicates, trypsin/AspN digest)
Type: cell-based
Outline: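 Full-length mouse ADAMTS7 (WT or E373Q mutant, C-terminal 3xFLAG) or luciferase was transduced via adenovirus, 50 MOI, into HCA-SMC (SMC1, SMC2) or HUVEC. SMC1: pooled media, technical triplicates 400 ug; SMC2: process triplicates 300 ug; HUVEC: process triplicates 200 ug, bFGF2 10 ng/ml.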

[1] = SMC2_TAILS HC, log fold change of N-terminal peptide, Ad-mADAMTS7 EQ over Luc

| Substance | logFC.mEQ.over.Luc [1] | logFC.mEQ.over.Luc (log fold change, ADAMTS7 EQ over luciferase) |
| --- | --- | --- |
| VIM_276 (YESVAAKNLQ; listed as Homo sapiens) | 0.06 | – |
| VIM_322 (QVQSLTCEV; listed as Homo sapiens) | −0.10 | – |
| VIM_433 (LVDTHSKR; listed as Homo sapiens) | – | 0.12 |
| ZSCAN4_25 (FQQSQGPAVQR; listed as Homo sapiens) | −0.09 | – |
